# Test results: patent publication US20240239894A1 (AstraZeneca / MedImmune, published 2024)
# Residue numbers refer to the chain shown, from its start.
# B1: E02_GL Fab (Fab, V domains shown)
# VH: QVQLQQWGAGLLKPSETLSLACTVYGGSFSGYYWNWIRQPPGKGLEWIGEINHSGSTSYNPSLKSRVTISVDTSKNQFSLKLSSVTAADTAVYYCARVLYNWNVDSWGQGTLVTVSS
# VL: DIQMTQSPSSLSASVGDRVTITCRASQDIRNDVGWYQQKPGKAPKRLIYAASRLQSGVPSRFSGSGSGTEFTLTISSLQPEDFATYYCLQHNSYPRTFGQGTKVEIK
# notes: Fab of E02-GL; also called EO2_GL Fab; E02-INT Fab
# B2: E02-GLY-maia (antibody, human IgG1, kappa, V domains shown)
# VH: B1 VH with N52Y
# VL: DIQMTQSPSSLSASVGDRVTITCRASQDIRNDVGWYQQKPGKAPKRLIYAASRLQSGVPSRFSGSGSGTEFTLTISSLQPEDFATYYCLQHNSYPRTFGQGTKVEIKR
# notes: Germlined with a Y substitution, Maia format
# B3: E02-GLQ-maia (antibody, human IgG1, kappa, V domains shown)
# VH: B1 VH with N52Q
# VL: B2 VL
# notes: Germlined with a Q substitution, Maia format
# B4: E02-GL-SG3932 (antibody, human IgG1, kappa)
# heavy: not shown
# light: DIQMTQSPSSLSASVGDRVTITCRASQDIRNDVGWYQQKPGKAPKRLIYAASRLQSGVPSRFSGSGSGTEFTLTISSLQPEDFATYYCLQHNSYPRTFGQGTKVEIKRTVAAPSVFIFPPSDEQLKSGTASVVCLLNNFYPREAKVQWKVDNALQSGNSQESVTEQDSKDSTYSLSSTLTLSKADYEKHKVYACEVTHQGLSSPVTKSFNRGEC
# modifications: SG3932 on native cysteines (DAR about 8 for the whole antibody); SG3932 (mal-PEG8-val-ala linker with TOP1i warhead) on native cysteines through a thiosuccinimide linkage, about 8 drugs per antibody
# notes: also called E02-INT-SG3932; B7-H4 targeting TOP1i-ADC; copies: 2 + 2
# B5: E02-INT (antibody intermediate of E02-GL-SG3932) (antibody, human IgG1, kappa)
# heavy: not shown
# light: B4 light
# notes: also called E02-GL antibody; antibody intermediate E02-INT
# Tests used:
# [1] = target: T1, recombinant mouse B7-H4 (tag format not stated) (mouse, UniProt Q7TSP5 25-257, limits assumed); experiment: SPR
# T1 construct: FlagHis10 or FcHis6 in the commercial antibody ELISA; also called murine B7-H4 antigen
# T1 sequence (looked up): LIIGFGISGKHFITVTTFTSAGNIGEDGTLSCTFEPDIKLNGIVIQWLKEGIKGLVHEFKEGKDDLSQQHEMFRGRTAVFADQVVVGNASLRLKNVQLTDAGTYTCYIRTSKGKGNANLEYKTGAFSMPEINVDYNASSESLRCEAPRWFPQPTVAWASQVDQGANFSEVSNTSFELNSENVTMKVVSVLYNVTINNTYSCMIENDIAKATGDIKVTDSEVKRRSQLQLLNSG
# [2] = target: T1, recombinant mouse B7-H4 (tag format not …); experiment: SPR; remark: listed apart in the source
# [3] = target: T2, recombinant human B7-H4 (tag format not stated) (human, UniProt Q7Z7D3 25-259); experiment: SPR, immobilized B7-H4
# T2 construct: also called huB7-H4; human B7-H4 antigen
# T2 sequence: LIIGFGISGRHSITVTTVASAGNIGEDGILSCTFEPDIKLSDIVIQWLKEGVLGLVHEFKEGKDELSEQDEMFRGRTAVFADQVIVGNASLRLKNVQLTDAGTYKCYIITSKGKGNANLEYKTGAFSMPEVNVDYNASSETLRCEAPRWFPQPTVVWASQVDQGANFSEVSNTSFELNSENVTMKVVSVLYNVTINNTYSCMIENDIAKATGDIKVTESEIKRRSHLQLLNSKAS
# [4] = target: T3, recombinant cynomolgus monkey B7-H4 (tag format not stated) (cynomolgus monkey, UniProt A0A2K5U6P5 25-259); experiment: SPR, immobilized B7-H4
# T3 construct: also called cyno B7-H4
# T3 sequence: T2 sequence with L53I
# [5] = target: T4, Human B7-H4 ECD-Flag-His10 (monomeric) (human, UniProt Q7Z7D3 25-259); experiment: KinExA 3200, Fab, N-curve analysis
# T4 construct: Minimally biotinylated for KinExA; also called hB7H4-ECD-Flag-His10; B7-H4-FLAG
# T4 sequence: T2 sequence
# [6] = target: T4, Human B7-H4 ECD-Flag-His10 (monomeric); experiment: KinExA 3200, Fab at 5, 10 or 45 nM, 25 C, N-curve analysis
# [7] = target: T2, recombinant human B7-H4 (tag format not …); experiment: ELISA, Maia format mAb (GLY)
# [8] = target: T1, recombinant mouse B7-H4 (tag format not …); experiment: ELISA, Maia format mAb (GLY)
# [9] = target: T2, recombinant human B7-H4 (tag format not …); experiment: ELISA, Maia format mAb (GLQ)
# [10] = target: T1, recombinant mouse B7-H4 (tag format not …); experiment: ELISA, Maia format mAb (GLQ)
# human B7-H4 on cells [11] = target: T5, human B7-H4 on cells (human, UniProt Q7Z7D3 25-282); experiment: cell-based or functional assay
# T5 sequence: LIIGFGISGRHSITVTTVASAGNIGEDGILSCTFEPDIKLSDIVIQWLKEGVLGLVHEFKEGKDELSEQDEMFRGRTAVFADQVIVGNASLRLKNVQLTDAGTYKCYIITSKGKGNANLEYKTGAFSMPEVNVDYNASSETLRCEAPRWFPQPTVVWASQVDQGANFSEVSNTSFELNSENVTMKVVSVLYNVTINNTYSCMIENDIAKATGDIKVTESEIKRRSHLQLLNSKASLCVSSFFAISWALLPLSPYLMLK
# [12] = target: T2, recombinant human B7-H4 (tag format not …); experiment: SPR, antibody capture
# human FcRn = human FcRn (human, UniProt P55899 24-297; P61769 21-119); experiment: SPR, steady state; steady state; human FcRn
# huFcγRI = huFcγRI (human, UniProt P12314 16-288); experiment: SPR, equilibrium KD; equilibrium KD; huFcγRI
# [13] = target: T2, recombinant human B7-H4 (tag format not …); experiment: DELFIA-ELISA on immobilized recombinant human B7-H4
# human B7-H4 on cells [14] = target: T5, human B7-H4 on cells; experiment: flow cytometry on HT29-huB7-H4 Clone 4 cells, MFI (geometric mean)
# human B7-H4 on cells [15] = target: T5, human B7-H4 on cells; experiment: flow cytometry on HT29-huB7-H4 Clone 26 cells, MFI (geometric mean)
# human B7-H4 on cells [16] = target: T5, human B7-H4 on cells; experiment: flow cytometry on MX-1 cells (endogenous human B7-H4), MFI (geometric mean)
# human B7-H4 on cells [17] = target: T5, human B7-H4 on cells; experiment: flow cytometry on MDA-MB-468 cells (endogenous human B7-H4), MFI (geometric mean)
# murine B7-H4 on cells = target: T6, murine B7-H4 on cells (mouse, UniProt Q7TSP5 25-257); experiment: flow cytometry on HEK293 JI TREX cells stably expressing murine B7-H4, MFI (geometric mean)
# T6 construct: whole, on cells; also called muB7-H4
# T6 sequence (looked up): T1 sequence (looked up)
# [18] = target: T7, cynomolgus monkey B7-H4 on cells (cynomolgus monkey, UniProt A0A2K5U6P5 25-282); experiment: flow cytometry on HEK293 JI TREX cells stably expressing cynomolgus monkey B7-H4, MFI (geometric mean)
# T7 construct: whole, on cells; On HEK 293 cells; also called cynoB7-H4
# T7 sequence: T5 sequence with L53I, F242L, S252A
# huFcγRI, sequence (P12314 16-288 limits assumed): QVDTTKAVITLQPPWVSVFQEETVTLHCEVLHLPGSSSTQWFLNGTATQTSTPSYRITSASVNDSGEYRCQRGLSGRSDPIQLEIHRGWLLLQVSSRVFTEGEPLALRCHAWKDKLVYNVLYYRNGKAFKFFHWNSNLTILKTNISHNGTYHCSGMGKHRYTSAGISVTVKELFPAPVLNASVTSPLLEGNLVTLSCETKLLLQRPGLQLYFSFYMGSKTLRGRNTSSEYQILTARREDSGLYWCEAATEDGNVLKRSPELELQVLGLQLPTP
# human FcRn, sequence (P55899 24-297 limits assumed, chain 1 of 2): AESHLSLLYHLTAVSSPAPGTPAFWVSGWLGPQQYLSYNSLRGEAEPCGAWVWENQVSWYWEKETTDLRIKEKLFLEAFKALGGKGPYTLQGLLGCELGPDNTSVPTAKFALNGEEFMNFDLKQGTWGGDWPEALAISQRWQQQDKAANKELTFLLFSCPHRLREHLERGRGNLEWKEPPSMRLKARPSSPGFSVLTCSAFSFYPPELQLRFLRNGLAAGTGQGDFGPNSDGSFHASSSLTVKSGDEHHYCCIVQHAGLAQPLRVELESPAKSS
# human FcRn, sequence (P61769 21-119 limits assumed, chain 2 of 2): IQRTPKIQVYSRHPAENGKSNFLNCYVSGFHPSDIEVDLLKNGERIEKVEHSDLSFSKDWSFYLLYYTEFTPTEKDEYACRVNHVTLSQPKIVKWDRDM
binder,measurement,setting,value
B1,fold lower affinity than for human B7-H4 antigen,[1],~100 fold
same,Kd,[2],405 nM
same,Kd,[3],3.7 nM
same,Kd,[4],3.94 nM
same,Kd,[5],1.21 nM
same,Kd,[6],1.2 nM
B2,binding result,[7],binds
same,binding result,[8],binds
B3,binding result,[9],binds
same,binding result,[10],binds
B4,"IC50, cytotoxicity (CellTiter-Glo) on HT29-huB7-H4 Clone 26",human B7-H4 on cells [11],0.036 g/mL (as printed; probably µg/mL)
same,"IC50, cytotoxicity (CellTiter-Glo) on MX-1",human B7-H4 on cells [11],0.029 µg/mL
same,"IC50, cytotoxicity (CellTiter-Glo, 6 days) on human B7-H4 transfected Ad293 cells",human B7-H4 on cells [11],0.0533 µg/mL
same,Kd,[12],29.3 nM
same,koff,[12],0.0028 s⁻¹
same,kon,[12],95500 M⁻¹ s⁻¹
same,Kd,human FcRn,4360 nM
same,Kd,huFcγRI,4.35 nM
same,EC50,[13],1.71 nM
same,EC50 (read off the curve),human B7-H4 on cells [14],~0.07 µg/mL
same,EC50 (read off the curve),human B7-H4 on cells [15],~0.1 µg/mL
same,EC50 (read off the curve),human B7-H4 on cells [16],~0.1 µg/mL
same,EC50 (read off the curve),human B7-H4 on cells [17],~0.08 µg/mL
B5,Kd,[12],31.1 nM
same,koff,[12],0.00292 s⁻¹
same,kon,[12],93800 M⁻¹ s⁻¹
same,EC50,[13],1.98 nM
same,EC50 (read off the curve),human B7-H4 on cells [14],~0.05 µg/mL
same,EC50 (read off the curve),human B7-H4 on cells [15],~0.07 µg/mL
same,EC50 (read off the curve),human B7-H4 on cells [16],~0.1 µg/mL
same,EC50 (read off the curve),human B7-H4 on cells [17],~0.08 µg/mL
same,EC50 (read off the curve),murine B7-H4 on cells,~0.2 µg/mL
same,EC50 (read off the curve),[18],~0.4 µg/mL
